# According to IntAct's records for PubMed 10918185:
# B1: Tumor necrosis factor receptor superfamily member 6 (Homo sapiens), P25445 (parent)
# chain: MLGIWTLLPLVLTSVARLSSKSVNAQVTDINSKGLELRKTVTTVETQNLEGLHHDGQFCHKPCPPGERKARDCTVNGDEPDCVPCQEGKEYTDKAHFSSKCRRCRLCDEGHGLEVEINCTRTQNTKCRCKPNFFCNSTVCEHCDPCTKCEHGIIKECTLTSNTKCKEEGSRSNLGWLCLLLLPIPLIVWVKRKEVQKTCRKHRKENQGSHESPTLNPETVAINLSDVDLSKYITTIAGVMTLSQVKGFVRKNGVNEAKIDEIKNDNVQDTAEQKVQLLRNWHQLHGKKEAYDTLIKDLKKANLCTLAEKIQTIILKDITSDSENSNFRNEIQSLV
# Variants of: B1
# Settings: with ptn13_human PTPN13, Q12923
# Sequence of ptn13_human PTPN13, Q12923 (Q12923 whole entry): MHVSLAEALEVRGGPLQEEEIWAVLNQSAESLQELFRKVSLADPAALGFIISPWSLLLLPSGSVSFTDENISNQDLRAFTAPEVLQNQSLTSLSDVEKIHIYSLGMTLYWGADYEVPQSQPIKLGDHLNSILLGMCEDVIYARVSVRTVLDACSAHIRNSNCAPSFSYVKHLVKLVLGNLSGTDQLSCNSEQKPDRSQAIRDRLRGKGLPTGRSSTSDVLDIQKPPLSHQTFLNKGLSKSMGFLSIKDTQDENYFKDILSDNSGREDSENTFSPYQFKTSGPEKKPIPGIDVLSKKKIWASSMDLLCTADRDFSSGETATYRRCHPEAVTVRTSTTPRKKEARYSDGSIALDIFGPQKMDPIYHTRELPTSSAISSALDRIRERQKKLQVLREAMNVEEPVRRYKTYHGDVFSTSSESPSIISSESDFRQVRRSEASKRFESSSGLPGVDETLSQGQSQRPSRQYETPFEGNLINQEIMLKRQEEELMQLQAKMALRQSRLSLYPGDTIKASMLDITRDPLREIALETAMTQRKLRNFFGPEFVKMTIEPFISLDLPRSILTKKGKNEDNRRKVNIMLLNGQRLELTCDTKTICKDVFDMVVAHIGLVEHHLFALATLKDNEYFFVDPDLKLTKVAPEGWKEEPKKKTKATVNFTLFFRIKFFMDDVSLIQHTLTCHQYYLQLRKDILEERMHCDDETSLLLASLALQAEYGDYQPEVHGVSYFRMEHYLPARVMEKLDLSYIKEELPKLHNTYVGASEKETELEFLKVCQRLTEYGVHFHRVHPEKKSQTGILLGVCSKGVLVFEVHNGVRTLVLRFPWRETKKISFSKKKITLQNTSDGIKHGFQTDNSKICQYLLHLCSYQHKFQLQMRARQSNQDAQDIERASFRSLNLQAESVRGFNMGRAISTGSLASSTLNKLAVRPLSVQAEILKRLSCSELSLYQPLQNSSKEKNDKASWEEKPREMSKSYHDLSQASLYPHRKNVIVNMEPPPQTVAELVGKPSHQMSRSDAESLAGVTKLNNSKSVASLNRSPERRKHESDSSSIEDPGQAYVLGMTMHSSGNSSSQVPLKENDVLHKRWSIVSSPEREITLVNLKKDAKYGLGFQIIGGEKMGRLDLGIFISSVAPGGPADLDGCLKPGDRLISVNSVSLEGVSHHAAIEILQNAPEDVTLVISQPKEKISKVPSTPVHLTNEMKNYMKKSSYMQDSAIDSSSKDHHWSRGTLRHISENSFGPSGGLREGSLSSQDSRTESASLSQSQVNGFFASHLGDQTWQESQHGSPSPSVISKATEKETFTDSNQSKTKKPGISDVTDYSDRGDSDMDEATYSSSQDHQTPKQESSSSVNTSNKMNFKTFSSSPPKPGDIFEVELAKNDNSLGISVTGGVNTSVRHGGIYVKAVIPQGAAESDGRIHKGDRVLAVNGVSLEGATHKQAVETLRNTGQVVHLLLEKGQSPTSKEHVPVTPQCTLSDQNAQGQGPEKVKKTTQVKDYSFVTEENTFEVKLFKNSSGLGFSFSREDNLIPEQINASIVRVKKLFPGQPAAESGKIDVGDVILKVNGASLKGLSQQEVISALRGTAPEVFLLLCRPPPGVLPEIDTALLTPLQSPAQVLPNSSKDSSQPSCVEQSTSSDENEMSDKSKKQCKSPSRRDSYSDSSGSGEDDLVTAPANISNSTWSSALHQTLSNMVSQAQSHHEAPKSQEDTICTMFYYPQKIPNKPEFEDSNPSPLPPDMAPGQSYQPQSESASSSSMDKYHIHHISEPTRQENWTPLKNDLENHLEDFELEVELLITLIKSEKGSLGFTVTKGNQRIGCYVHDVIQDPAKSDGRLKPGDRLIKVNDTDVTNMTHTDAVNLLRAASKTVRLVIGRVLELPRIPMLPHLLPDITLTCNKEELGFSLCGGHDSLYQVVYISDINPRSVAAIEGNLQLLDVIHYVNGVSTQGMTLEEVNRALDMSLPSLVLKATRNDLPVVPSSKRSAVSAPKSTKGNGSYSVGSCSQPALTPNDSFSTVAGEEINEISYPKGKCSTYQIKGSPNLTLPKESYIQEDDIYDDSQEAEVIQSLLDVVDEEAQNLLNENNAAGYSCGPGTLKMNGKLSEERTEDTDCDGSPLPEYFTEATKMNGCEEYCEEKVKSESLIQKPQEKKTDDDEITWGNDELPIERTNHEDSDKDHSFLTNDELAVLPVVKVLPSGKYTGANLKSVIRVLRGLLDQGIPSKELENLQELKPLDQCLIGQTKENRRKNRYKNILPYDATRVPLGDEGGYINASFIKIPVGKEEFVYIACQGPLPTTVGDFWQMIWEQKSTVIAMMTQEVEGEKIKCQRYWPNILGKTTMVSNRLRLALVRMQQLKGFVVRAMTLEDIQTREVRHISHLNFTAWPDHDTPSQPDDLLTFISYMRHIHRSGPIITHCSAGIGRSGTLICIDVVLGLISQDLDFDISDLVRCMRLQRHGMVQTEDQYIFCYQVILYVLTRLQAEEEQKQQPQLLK
row,Variant,effect of a mutation on the interaction
1,S333P,decreasing interaction
